# Assay results taken from PMC9561612.
# Target: CXCR4 receptor (human (endogenous in MDA-MB-231)) (UniProt P61073)
# UniProt P61073, sequence (P61073 whole entry): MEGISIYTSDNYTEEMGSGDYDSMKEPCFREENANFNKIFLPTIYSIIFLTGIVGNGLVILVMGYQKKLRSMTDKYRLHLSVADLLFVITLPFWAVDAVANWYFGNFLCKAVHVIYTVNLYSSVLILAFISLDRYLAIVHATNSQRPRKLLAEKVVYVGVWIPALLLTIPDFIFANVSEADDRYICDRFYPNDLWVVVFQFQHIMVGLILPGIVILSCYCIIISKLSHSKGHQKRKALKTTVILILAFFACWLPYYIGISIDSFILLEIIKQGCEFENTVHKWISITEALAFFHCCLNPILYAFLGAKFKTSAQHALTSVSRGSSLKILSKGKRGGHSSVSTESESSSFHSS
substance,measurement,value
OHD_(4–12) (Obligate HeteroDimer CXCL4–CXCL12) (from UniProt P48061-2 22-89) (complex),"cytoplasmic Ca2+ release in MDA-MB-231 cells (Fura-2), dose response to OHD (4–12), EC50",1.3 nM
